Measured values as given in patent US20190330277A1 (PIRBRIGHT INSTITUTE, published 2019).

Key:
Assay in all cases: ELISA, variant from culture supernatant on Ni-NTA plate
[1] = target: T1, RB94 sc9 DS-CAV1 A149C-Y458C L373R
T1 construct: also called DS2-v20
Method: (§1) Initial assessment of all constructs were performed using a 96-well microplate format for high throughput expression followed by an ELISA-based antigenic evaluation as described previously 17. […] Plasmid DNA and TrueFect-Max (United BioSystems, MD) were mixed and added to the growing cells, and the 96-well plate incubated at 37° C., 5% CO2. One day post transfection, enriched medium (high glucose DMEM plus 25% ultra-low IgG fetal bovine serum, 2× nonessential amino acids, 1× glutamine) was added to each well, and the 96-well plate was returned to the incubator for continuous culture.

[2] = target: T2, 391-2-DS-Cav1-sc9deleteFS 99C-362C
T2 construct: also called DS2-v16
Method: as §1

[3] = target: T3, 391-2-DS-Cav1-sc9deleteFS 100C-361C
T3 construct: also called DS2-v29
Method: as §1

[4] = target: T4, 391-2-DS-Cav1_ sc9_S398C-S485C
T4 construct: also called DS2-v23
Method: as §1

[5] = target: T5, RB94 dscav1T369C-T455C Long S190V
T5 construct: also called DS2-v18
Method: as §1

[6] = target: T6, 391-2-DS-Cav1-sc9 100C-361C
T6 construct: also called DS2-v19
Method: as §1

[7] = target: T7, RB94 hu/bov DS-CAV1 A149C-Y458C Long
T7 construct: also called DS2-v7
Method: as §1

[8] = target: T8, RB94 sc9 DS-CAV1 A149C-Y458C L373R Long K226L
T8 construct: also called DS2-v24
Method: as §1

[9] = target: T9, RB94 DS-CAV1 T369C-T455C Long
T9 construct: also called DS2-v32
Method: as §1

[10] = target: T10, 391-2-DS-Cav1-sc9deleteFS 100C-362C
T10 construct: also called DS2-v21
Method: as §1

[11] = target: T11, 391-2-DS-Cav1-sc9deleteFS 99C-361C
T11 construct: also called DS2-v15
Method: as §1

[12] = target: 391-2-DS-Cav1_ I28C-G464C
Method: as §1

[13] = target: T12, RB94 sc9 DS-CAV1 A149C-Y458C L373R Long
T12 construct: also called DS2-v22
Method: as §1

[14] = target: T13, 391-2-DS-Cav1_ sc9_I395C-A490C
T13 construct: also called DS2-v27
Method: as §1

[15] = target: T14, 391-2-DS-Cav1-sc9deleteFS 98C-361C
T14 construct: also called DS2-v8
Method: as §1

[16] = target: T15, 391-2-DS-Cav1_ sc9_S485C-A490C
T15 construct: also called DS2-v28
Method: as §1

[17] = target: T16, 391-2-DS-Cav1_ sc9_T449C-V459C
T16 construct: also called DS2-v31
Method: as §1

[18] = target: T17, 391-2-DS-Cav1_ S398C-S485C
T17 construct: also called DS2-v25
Method: as §1

[19] = target: T18, RB94 sc9 DS-CAV1 N183GC-N428C L373R Long S190V
T18 construct: also called DS2-v13
Method: as §1

[20] = target: T19, RB94 sc9 DS-CAV1 A149C-Y458C L373R Long S190V
T19 construct: also called DS2-v30
Method: as §1

RB94 DS-Cav1 Long FdPL = target: T20, RB94 DS-Cav1 Long FdPL
T20 construct: also called sc-v31
Method: as §1

[21] = target: T21, sc9-10_DS-CAV1_bRSV(RB94)_Fd_hp2_fp1_ig1
T21 construct: also called sc-v5
Method: as §1

391-2-DS-Cav1-IP-4 = target: T22, 391-2-DS-Cav1-IP-4
T22 construct: also called sc-v32
Method: as §1

[22] = target: T23, 391-2-DS-Cav1-BZGJ9 Long S190V
T23 construct: also called sc-v23
Method: as §1

KXlinker2 = target: T24, KXlinker2
T24 construct: also called sc-v35
Method: as §1

[23] = target: T25, sc9-10_DS-CAV1_bRSV(RB94)_Fd_pm1_fp2_ig1
T25 construct: also called sc-v24
Method: as §1

[24] = target: T26, sc9-10_DS-CAV1_bRSV(RB94)_Fd_fp2_ig1
T26 construct: also called sc-v34
Method: as §1

391-2_DS-Cav1-tzsc7 = target: T27, 391-2_DS-Cav1-tzsc7
T27 construct: also called sc-v21
Method: as §1

[25] = target: T28, RB94 site 0 hRSV DS-Cav1-BZGJ9 Long FdPL
T28 construct: also called sc-v6
Method: as §1

391-2wt_F-SC_12R core = target: T29, 391-2wt_F-SC_12R core
T29 construct: also called sc-v28
Method: as §1

391-2_DS-Cav1-tzsc5 = target: T30, 391-2_DS-Cav1-tzsc5
T30 construct: also called sc-v25
Method: as §1

Binder	ELISA binding value [1]	ELISA binding value [2]	ELISA binding value [3]	ELISA binding value [4]	ELISA binding value [5]	ELISA binding value [6]	ELISA binding value [7]	ELISA binding value [8]	ELISA binding value [9]	ELISA binding value [10]	ELISA binding value [11]	ELISA binding value [12]	ELISA binding value [13]	ELISA binding value [14]	ELISA binding value [15]	ELISA binding value [16]	ELISA binding value [17]	ELISA binding value [18]	ELISA binding value [19]	ELISA binding value [20]	other results
MPE8 antibody (antibody, V domains shown, also called mAb MPE8) VH: EVQLVESGGGLVKPGGSLRLSCAASGFTFSSYSMNWVRQAPGKGLEWVSSISASSSYSDYADSAKGRFTISRDNAKTSLFLQMNSLRAEDTAIYFCARARATGYSSITPYFDIWGQGTLVTVSS VL: QSVVTQTPSVSGAPGQRVTISCTGSSSNIGAGYDVHWYQQLPGTAPKLLIYDNNNRPSGVPDRFSASKSGTSASLAITGLQAEDEADYYCQSYDRNLSGVFGTGTKVTVL	0.154	0.2	0.0592	0.0849	0.371	0.173	0.29	0.0872	0.0667	0.0757	0.229	0.0815	0.0692	0.0919	0.43	0.0579	0.1	0.0824	0.155	0.0477	ELISA binding value (RB94 DS-Cav1 Long FdPL): 0.489; ELISA binding value [21]: 2.25; ELISA binding value (391-2-DS-Cav1-IP-4): 0.541; ELISA binding value [22]: 1.19; ELISA binding value (KXlinker2): 0.361; ELISA binding value [23]: 0.973; ELISA binding value [24]: 0.464; ELISA binding value (391-2_DS-Cav1-tzsc7): 1.5; ELISA binding value [25]: 2.2; ELISA binding value (391-2wt_F-SC_12R core): 0.646; ELISA binding value (391-2_DS-Cav1-tzsc5): 1.22
D25 antibody (antibody, V domains shown, also called mAb D25) VH: QVQLVQSGAEVKKPGSSVMVSCQASGGPLRNYIINWLRQAPGQGPEWMGGIIPVLGTVHYAPKFQGRVTITADESTDTAYIHLISLRSEDTAMYYCATETALVVSTTYLPHYFDNWGQGTLVTVSS VL: DIQMTQSPSSLSAAVGDRVTITCQASQDIVNYLNWYQQKPGKAPKLLIYVASNLETGVPSRFSGSGSGTDFSLTISSLQPEDVATYYCQQYDNLPLTFGGGTKVEIK	0.175	0.197	0.133	0.144	0.182	0.181	0.274	0.144	0.129	0.16	0.198	0.139	0.158	0.136	0.271	0.136	0.133	0.141	0.206	0.133	ELISA binding value (RB94 DS-Cav1 Long FdPL): 0.392; ELISA binding value [21]: 2.17; ELISA binding value (391-2-DS-Cav1-IP-4): 0.333; ELISA binding value [22]: 1.13; ELISA binding value (KXlinker2): 0.321; ELISA binding value [23]: 1.01; ELISA binding value [24]: 0.299; ELISA binding value (391-2_DS-Cav1-tzsc7): 0.997; ELISA binding value [25]: 2.16; ELISA binding value (391-2wt_F-SC_12R core): 0.709; ELISA binding value (391-2_DS-Cav1-tzsc5): 0.662
